The source of these data is patent publication US9200040B2, “Specific binding agents of human angiopoietin-2” (Amgen Inc., priority 2001, dated 2015).

Like-named read-outs stand apart in the source and are kept apart here. Primed or numbered codes have the meaning given here. Where no end group is shown, it is not given here. [ ]: non-standard residue; d: D form. Fc(6) = Fc vehicle: non-antigen-binding antibody fragment (from proteolytic digestion of an antibody) fused to the peptide; Fc(8) = Fc vehicle: non-antigen-binding antibody fragment fused to the peptide (peptibody); Fc(5) = non-antigen-binding fragment of an antibody (vehicle) fused to the peptide; Fc(9) = antibody Fc fragment, the non-antigen-binding fragment

One data set has as its system Colo-205 tumor. The note with it: for tumor growth vs. vehicle control: from study day 14: 2×Con4-C 350 μg/mouse s.c. twice a week, p<0.0001. As to the method: Female nude mice were injected subcutaneously with 2×10^6 Colo-205 cells plus Matrigel (2:1) on study day 0. At day 3, the Ang-2 peptibodies L1-7-N, L1-21-N, Con4-C, and 2×Con4-C were administered subcutaneously at the dose of […], twice a week.
Female nude mice were injected subcutaneously with 2×10^6 Colo-205 cells plus Matrigel (2:1) on study day 0.
Female nude mice were injected subcutaneously with 2×10^6 Colo-205 cells plus Matrigel (2:1) on study day 0. At day 3, Ang-2 peptibody 2×Con4-C or control peptibody were administered subcutaneously at the dose of 350 μg/day. Tumors from groups treated with control peptibody (as described in Table 5) were harvested either at Day 14 (size-matched control) or Day 18 (time-matched control). Tumors from 2×Con4(C) treated group were then harvested at Day 18. Tumor volumes were recorded at regular intervals, as shown.
Female nude mice were injected subcutaneously with 2×10^6 Colo-205 cells plus Matrigel (2:1) on study day 0. Treatment with 350 μg/mouse, s.c. twice a week, of the Ang-2 peptibody 2×Con4-C, or equivalent control peptibody started either at study day 3, 10 or 15. […] The results are set forth in FIG. 8 (body weights not shown).
Female nude mice were injected subcutaneously with 2×10^6 Colo-205 cells plus Matrigel (2:1) on study day 0. At study day 14, treatments were started with a) 350 μg/mouse, s.c. twice a week, of the Ang-2 peptibody 2×Con4-C, b) 20 mg/kg qwx3 i.p. of taxotere, or c) a combination of both.
Female nude mice were injected subcutaneously with 2×10^6 Colo-205 cells plus Matrigel (2:1) on study day 0. At study day 14 started treatments with a) 350 μg/mouse, s.c. twice a week, of the Ang-2 peptibody 2×Con4-C, b) 50 mg/kg qdx5 i.p. of 5-FU, or c) a combination of both.

The target of the next data set is T1, huAng2 (Homo sapiens, UniProt O15123).
T1 construct: purchased R&D Systems BNO12103A
T1 sequence (O15123 68-496 limits assumed): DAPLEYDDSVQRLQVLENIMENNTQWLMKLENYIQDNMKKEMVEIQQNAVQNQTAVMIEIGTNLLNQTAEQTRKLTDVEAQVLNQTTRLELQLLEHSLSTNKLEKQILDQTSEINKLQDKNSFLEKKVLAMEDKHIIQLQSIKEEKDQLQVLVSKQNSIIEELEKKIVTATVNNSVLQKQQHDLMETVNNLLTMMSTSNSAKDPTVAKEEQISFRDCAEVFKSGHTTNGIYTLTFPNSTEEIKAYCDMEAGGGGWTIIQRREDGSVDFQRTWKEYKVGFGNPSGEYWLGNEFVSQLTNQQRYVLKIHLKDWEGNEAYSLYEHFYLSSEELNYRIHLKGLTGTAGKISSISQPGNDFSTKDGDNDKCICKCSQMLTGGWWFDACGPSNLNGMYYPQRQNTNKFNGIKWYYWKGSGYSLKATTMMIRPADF
Nature of the data set: BIAcore binding to huAng2 (Example 9). The note with it: Table 8. The method, then: Six samples of anti-Ang2 peptibodies were tested for their binding activity to huAng2 (R&D Systems, BNO12103A) on BIAcore. Protein G was immobilized to a CM5 chip according to the standard amine-coupling protocol (BIAcore Inc.), and the peptibodies were then injected over a protein G surface for capturing (RL˜100 Ru). To test binding between hAng2 and the captured peptibody, 0.3 nM to 40 nM of huAng2 was injected over the captured peptibody surfaces, and binding sensorgrams were analyzed using BIAevaluation 3.0 (BIAcore Inc.).
For orientation: In SPR one partner is held on a chip, and binding of the other changes the refractive index at the surface.

The target in a further data set is T2, hAng-1 (Homo sapiens, UniProt Q15389).
T2 sequence (Q15389 16-498): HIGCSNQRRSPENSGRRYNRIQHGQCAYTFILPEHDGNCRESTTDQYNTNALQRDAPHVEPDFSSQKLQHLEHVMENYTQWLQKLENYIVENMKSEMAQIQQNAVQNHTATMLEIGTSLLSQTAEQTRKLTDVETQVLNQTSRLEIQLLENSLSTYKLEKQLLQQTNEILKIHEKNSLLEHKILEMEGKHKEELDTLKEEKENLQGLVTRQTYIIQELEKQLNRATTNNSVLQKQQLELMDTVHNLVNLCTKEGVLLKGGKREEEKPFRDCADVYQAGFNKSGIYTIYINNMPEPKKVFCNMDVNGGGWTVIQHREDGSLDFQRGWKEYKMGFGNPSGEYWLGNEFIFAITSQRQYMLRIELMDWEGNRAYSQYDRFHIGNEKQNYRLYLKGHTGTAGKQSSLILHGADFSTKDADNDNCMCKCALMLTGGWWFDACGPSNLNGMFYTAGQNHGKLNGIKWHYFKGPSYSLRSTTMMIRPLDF
Nature of the data set: Neutralization ELISA (Example 2). It is filed as binding. The note with it: Table 5; about 1 nM Tie-2-Fc. A general note: In an ELISA, binding on a coated surface is turned into a signal by an enzyme label.

Another data set addresses T3, hAng-2 (Homo sapiens, UniProt O15123).
T3 construct: conditioned media of human 293T cells transfected with full length human Ang-2 DNA; made in house; host or cells: conditioned media
T3 sequence (O15123 19-496): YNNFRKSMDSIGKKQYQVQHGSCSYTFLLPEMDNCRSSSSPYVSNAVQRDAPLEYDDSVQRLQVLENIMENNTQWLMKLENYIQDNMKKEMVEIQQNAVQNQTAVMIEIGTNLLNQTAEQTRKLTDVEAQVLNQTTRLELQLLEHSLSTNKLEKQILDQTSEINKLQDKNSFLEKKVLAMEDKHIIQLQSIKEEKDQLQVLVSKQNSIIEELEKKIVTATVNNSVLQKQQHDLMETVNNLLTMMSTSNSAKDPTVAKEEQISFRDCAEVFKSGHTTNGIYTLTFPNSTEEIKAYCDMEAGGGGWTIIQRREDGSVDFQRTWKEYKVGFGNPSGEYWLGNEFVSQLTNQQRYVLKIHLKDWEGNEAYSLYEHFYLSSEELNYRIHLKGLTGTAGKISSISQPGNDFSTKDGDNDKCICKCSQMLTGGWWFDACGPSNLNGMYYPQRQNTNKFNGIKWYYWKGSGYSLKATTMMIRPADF
Briefly: Affinity BIAcore (Example 2). It is filed as binding. The note with it: Table 6. The method, then: (§1) Binding assays were carried out by first capturing about 100 Ru of each candidate anti-Ang-2 peptibody to the immobilized Protein G, after which various concentrations (0-100 nM) of huAng-2 or mAng-2 were injected over the bound antibody surface at a flow rate of 50 μl/min for 3 minutes. Peptibody binding kinetic parameters including ka (association rate constant), kd (dissociation rate constant) and KD (dissociation equilibrium constant) were determined using the BIA evaluation 3.1 computer program (Biacore, Inc.). Lower dissociation equilibrium constants indicated greater affinity of the peptibody for Ang-2.

The target in another data set is T4, mAng-2 (Mus musculus, UniProt O35608).
T4 construct: made in house
T4 sequence (O35608 19-496): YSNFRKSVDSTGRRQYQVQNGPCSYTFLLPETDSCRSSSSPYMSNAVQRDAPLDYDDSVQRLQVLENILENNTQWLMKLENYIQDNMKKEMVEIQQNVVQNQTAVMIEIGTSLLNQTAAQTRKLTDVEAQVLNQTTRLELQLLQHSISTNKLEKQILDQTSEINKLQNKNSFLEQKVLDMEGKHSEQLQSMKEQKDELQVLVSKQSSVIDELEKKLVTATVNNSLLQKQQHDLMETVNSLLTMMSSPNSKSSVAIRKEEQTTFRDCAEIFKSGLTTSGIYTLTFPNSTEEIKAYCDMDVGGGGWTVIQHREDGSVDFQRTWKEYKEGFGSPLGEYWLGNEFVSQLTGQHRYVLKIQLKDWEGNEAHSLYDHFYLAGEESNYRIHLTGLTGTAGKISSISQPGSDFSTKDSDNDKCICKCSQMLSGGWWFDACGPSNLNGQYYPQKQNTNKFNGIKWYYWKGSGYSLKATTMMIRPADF
Briefly: Affinity BIAcore (Example 2). Format: binding, murine. The settings on record: Table 6. As to the method:
as §1

With `O=c1[nH]cc(F)c(=O)[nH]1` [Peptibody 5-FU, 5-FU, reference compound], the “tumor growth vs. vehicle control” value in the data set on Colo-205 tumor (Example 19b, 5-FU 50 mg/kg qdx5 i.p., or both) is on record as “Significant differences in tumor growth”. In the data set with Colo-205 tumor (Example 19b, at study day 20, followed by complete recovery), the “transient reduction in body weight” value came to 18%.

In the case of `CC(=O)O[C@@]12CO[C@@H]1C[C@H](O)[C@@]1(C)C(=O)[C@H](O)C3=C(C)[C@@H](OC(=O)[C@H](O)[C@@H](NC(=O)OC(C)(C)C)c4ccccc4)C[C@@](O)([C@@H](OC(=O)c4ccccc4)[C@H]21)C3(C)C` [taxotere, reference compound], the “tumor growth vs. vehicle control” value with Colo-205 tumor (Example 19a, taxotere 20 mg/kg qwx3 i.p., or both) is “Significant differences in tumor growth”.

In the data set with huAng2, “M-Fc-GGGGGAQ-PIRQEECDWDPWTCEHMWEV-LE (M[Fc(8)]GGGGGAQPIRQEECDWDPWTCEHMWEVLE; cysteine pairing not given here; also: Fc vehicle fused at position 2) [Con4-44 (C)]” yielded a ka of 290000 M⁻¹ s⁻¹ and a kd of 5.9e-05 s⁻¹.

Take “MGAQ-FDYCEGVEDPFTFGCDNHLE-GGGGG-Fc (MGAQFDYCEGVEDPFTFGCDNHLEGGGGG[Fc(6)]; cysteine pairing not given here) [12-9 (N)]”: the “hAng-1 IC 50” value with hAng-1 is recorded as “No In-”. In the data set with hAng-2, this molecule had a hAng-2 ka of 120000 M⁻¹ s⁻¹ and a hAng-2 kd of 0.001 s⁻¹. In addition, in the data set with mAng-2, the mAng-2 ka amounted to 720000 M⁻¹ s⁻¹ and the mAng-2 kd was 0.00023 s⁻¹.

Take “MGAQ-HQICKWDPWTCKHWLEGGGGG-Fc (MGAQHQICKWDPWTCKHWLEGGGGG[Fc(5)]; not fully specified (bridges); printed as MGAQ-HQICKWDPWTCKHWLEGGGGG-Fc; cysteine pairing not given here) [8-14 (N)]”: in the data set with hAng-1, the “hAng-1 IC 50” value is recorded as “No In-”.

Consider “MGAQ-HTFQPLDELEETLYYQWLYDQL LEGGGGG-Fc (MGAQHTFQPLDELEETLYYQWLYDQLLEGGGGG[Fc]; also: Fc vehicle domain fused (peptibody)) [L1-21 (N)]”, for which, in the data set with huAng2, the ka is 560000 M⁻¹ s⁻¹ and the kd turned out to be 0.00014 s⁻¹.

“MGAQ-KRPCEEIFGGCTYQLEGGGGG-Fc (MGAQKRPCEEIFGGCTYQLEGGGGG[Fc(5)]; not fully specified (bridges); printed as MGAQ-KRPCEEIFGGCTYQLEGGGGG-Fc; cysteine pairing not given here) [Con1 (N)]”: the “hAng-1 IC 50” value with hAng-1 is reported as “No In-”.

For the molecule “MGAQ-KRPCEEMWGGCNYDLEGGGGG-Fc (MGAQKRPCEEMWGGCNYDLEGGGGG[Fc(5)]; not fully specified (bridges); printed as MGAQ-KRPCEEMWGGCNYDLEGGGGG-Fc; cysteine pairing not given here) [8-8 (N)]”, the “hAng-1 IC 50” value with hAng-1 is “No In-”.

In the case of “MGAQ-QKFQPLDELEQTLYEQFMLQQA LEGGGGG-Fc (MGAQQKFQPLDELEQTLYEQFMLQQALEGGGGG[Fc]; also: Fc vehicle domain fused (peptibody)) [L1-10 (N)]”, in the data set with huAng2, the ka turned out to be 150000 M⁻¹ s⁻¹ and the kd turned out to be 0.00011 s⁻¹.

Turning to “MGAQ-QYGCDGFLYGCMINLE-GGGGG-Fc (MGAQQYGCDGFLYGCMINLEGGGGG-{Fc(9)}; not fully specified (bridges); printed as MGAQ-QYGCDGFLYGCMINLE-GGGGG-Fc; cysteine pairing not given here) [C17 (N)]”, in the data set with hAng-1, the “hAng-1 IC 50” value is “No In-”.

Turning to “MGAQ-TNFMPMDDLEQRLYEQFILQQG-LEGGGGG-Fc (MGAQTNFMPMDDLEQRLYEQFILQQGLEGGGGG-Fc) [L1-7 (N)]”, in the data set with huAng2, the ka was found to be 370000 M⁻¹ s⁻¹ and the kd is 8.7e-05 s⁻¹.

For the molecule “MGAQKFNPLDELEETLYEQFTFQQLEGGGGG-Fc [L1 (N)]”, the “hAng-1 IC 50” value in the data set with hAng-1 was “No In-”. In the data set with hAng-2, this molecule showed a hAng-2 ka of 290000 M⁻¹ s⁻¹ and a hAng-2 kd of 0.00091 s⁻¹. In addition, in the data set with mAng-2, the mAng-2 ka was determined as 560000 M⁻¹ s⁻¹ and the mAng-2 kd came out at 0.00023 s⁻¹.
